Data set [1] relates to OC[C@H]1O[C@@](CO)(O[C@H]2O[C@H](CO)[C@@H](O)[C@H](O)[C@H]2O)[C@@H](O)[C@@H]1O. In words: Michaelis-Menten kinetics of the conversion of sucrose into isomaltulose (HPLC, initial velocities). In kind it is biochemical, Serratia plymuthica. To be noted: 25 mM calcium acetate pH 5.5, 20 °C, 74.7 nM enzyme, 50-400 mM sucrose. As for the experimental part: (§1) The enzyme activity assay was carried out in 25 mM calcium acetate pH 5.5 in the presence of 1.16 M sucrose (Sigma-Aldrich, St. Louis, MO) for 16 h at 20 °C.
(§2) The reaction mixture was composed as follows:
(§3) The enzymatic product composition was determined on an Agilent 1200 HPLC instrument (Agilent Technologies, Santa Clara, United States of America) equipped with a Smart line refractive index detector 2300 (Knauer, Berlin, Germany). The sample solution was applied on an XBridge amide column (particle size: 5.0 µm, inner diameter: 4.6, length: 250 mm); (Waters, Milford, MA) at a flow rate of 2 mL/min using a running buffer of 57.8 % acetonitrile, 26.1 % acetone and 16.1 % H2O.
The Michaelis constant (KM), the turnover number (kcat) and the catalytic efficiency (kcat/KM) were determined for isomaltulose. To this end, the enzymatic reaction was carried out as described above at sucrose concentrations of 50 mM, 100 mM, 150 mM, 200 mM, 300 mM and 400 mM and stopped after 10 min, 20 min, 30 min and 40 min by heating the sample at 95 °C for 10 min. To determine the initial velocities at these sucrose concentrations, the isomaltulose yield was analysed via HPLC and plotted against the […]. The slope of the subsequent linear regression corresponded to the initial velocity.
Figure 1 illustrates analysis of the enzyme kinetics and the product spectrum of mutant SmuA. […] The initial velocities for the production of isomaltulose were measured by HPLC at sucrose concentrations of 50 mM, 100 mM, 150 mM, 200 mM, 300 mM, and 400 mM. The enzyme activity assay was carried out in 25 mM calcium acetate buffer pH 5.5 at 20 °C and 74.7 nM of the enzyme. […] Chromatographic conditions: XBridge amide column (particle size: 5.0 µm, inner diameter: 4.6, length: 250 mm); flow rate: 2 mL/min; injection volume: 20 µL; running buffer: 57.8 % acetonitrile, 26.1 % acetone, 16.1 % H2O. Detection via Smartline refractive index detector 2300. The enzyme activity assay was carried out in 25 mM calcium acetate buffer pH 5.5 in the presence of 1.16 M sucrose and 74.4 nM of the recombinant wild type enzyme for 16 h at 20 °C. Table 1: Composition of the isomerization products from sucrose by engineered SmuA variants.

Data set [2] concerns the target Serratia plymuthica sucrose isomerase SmuA variant SmuA(Q181P/D398G/F453Y) (Serratia plymuthica, UniProt D0VX20, D383G/F438Y/Q166P/V450E). Described as above. The class given is biochemical. To be noted: 25 mM calcium acetate pH 5.5, 20 °C, 74.7 nM enzyme, 50-400 mM sucrose. As for the experimental part:
as §1, §2, §3
The Michaelis constant (KM), the turnover number (kcat) and the catalytic efficiency (kcat/KM) were determined for isomaltulose. […] To determine the initial velocities at these sucrose concentrations, the isomaltulose yield was analysed via HPLC and plotted against the respective sucrose concentration. […]
Figure 1 illustrates analysis of the enzyme kinetics and the product spectrum of mutant SmuA. […] The initial velocities for the production of isomaltulose were measured by HPLC at sucrose concentrations of 50 mM, 100 mM, 150 mM, 200 mM, 300 mM, and 400 mM. […]

Setting [3] is: other: SmuA(Y219L/T369F/D398G/F453Y).

“Serratia plymuthica sucrose isomerase SmuA variant SmuA(Y219L) (Serratia plymuthica; V450E/Y204L)”: in data set [1] (other: SmuA(Y219L)), the Km turned out to be 86.64 mM, the kcat is 665.77 s⁻¹ and the kcat/Km was 7680 M⁻¹ s⁻¹.

Regarding “Serratia plymuthica sucrose isomerase SmuA variant SmuA(Y219L/T369F/D398G/F453Y) (Serratia plymuthica; D383G/F438Y/T354F/V450E/Y204L)”, in data set [1] (setting [3]), the Km is on record as 58.16 mM, the kcat turned out to be 201.07 s⁻¹ and the kcat/Km was determined as 3460 M⁻¹ s⁻¹.

Regarding “Serratia plymuthica sucrose isomerase SmuA variant SmuA(Y219L/D398G) (Serratia plymuthica; D383G/V450E/Y204L)”, in data set [1] (other: SmuA(Y219L/D398G)), the Km turned out to be 60.16 mM, the kcat amounted to 708.22 s⁻¹ and the kcat/Km is 11770 M⁻¹ s⁻¹.

Consider “Serratia plymuthica sucrose isomerase SmuA, used as wildtype SmuA (UniProt D0VX20 with point mutation V465E, SEQ ID NO:3) (Serratia plymuthica; V450E)”, for which, in data set [1] (other: SmuA), the Km stood at 55.25 mM, the catalytic constant (kcat) is 965.15 s⁻¹ and the kcat/Km was 17470 M⁻¹ s⁻¹.

On to `OC[C@H]1O[C@@](CO)(O[C@H]2O[C@H](CO)[C@@H](O)[C@H](O)[C@H]2O)[C@@H](O)[C@@H]1O` [sucrose], for which the kcat in data set [2] was determined as 122.88 s⁻¹.

For orientation: Km means the substrate concentration at which the rate is half of its maximum. By kcat is commonly meant the maximal rate divided by the concentration of active sites. For orientation: kcat/Km means the second-order rate constant that governs catalysis at low substrate concentration.

For the origin of these results see EP3653708A1, “ISOMALTULOSE PRODUCTION” (Evonik Operations GmbH, priority 2018, dated 2020).
